Molecular target: the molecule itself
Assay: SEC

B1: recombinant soluble signaling lymphocytic activation molecule (sSLAM) with a Flag sequence at the carboxy terminus (natural protein, human, UniProt Q13291-3 21-305, looked up)
chain: ASYGTGGRMMNCPKILRQLGSKVLLPLTYERINKSMNKSIHIVVTMAKSLENSVENKIVSLDPSEAGPPRYLGDRYKFYLENLTLGIRESRKEDEGWYLMTLEKNVSVQRFCLQLRLYEQVSTPEIKVLNKTQENGTCTLILGCTVEKGDHVAYSWSEKAGTHPLNPANSSHLLSLTLGPQHADNIYICTVSNPISNNSQTFSPWPGCRTDPSGKTNHYQTTVEKKSLTIYAQVQKPGPLQKKLDSFPAQDPCTTIYVAATEPVPESVQETNSITVYASVTLPES
With B1 the “stoichiometry N” value was 2.

Source: paper PMC2196230 (The Journal of Experimental Medicine, 1997)
